How the values were obtained:
Experiment in all cases: pulldown
[1] = target: T1, CBG03563 (Caenorhabditis briggsae) (UniProt A8WVC5); conditions: 20 nM protein, 1.5 uM RNA pool; 20 mM HEPES pH 7.8, 70 mM KCl, 10 mM NaCl, 10% glycerol, 2 mM DTT, 0.1 ug/uL BSA; 30 min, 4 C
T1 sequence: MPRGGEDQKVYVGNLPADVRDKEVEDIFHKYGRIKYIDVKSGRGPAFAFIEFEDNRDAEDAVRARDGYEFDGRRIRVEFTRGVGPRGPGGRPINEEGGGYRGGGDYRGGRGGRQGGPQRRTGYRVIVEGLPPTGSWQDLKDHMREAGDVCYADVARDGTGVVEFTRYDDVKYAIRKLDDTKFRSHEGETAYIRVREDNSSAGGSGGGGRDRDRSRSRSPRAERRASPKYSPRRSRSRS

[2] = target: T2, PK11774.1 (Cannabis sativa) (UniProt A0A7J6FQM5); conditions: 20 nM protein, 1.5 uM RNA pool; 20 mM HEPES pH 7.8, 70 mM KCl, 10 mM NaCl, 10% glycerol, 2 mM DTT, 0.1 ug/uL BSA; 30 min, 4 C
T2 sequence: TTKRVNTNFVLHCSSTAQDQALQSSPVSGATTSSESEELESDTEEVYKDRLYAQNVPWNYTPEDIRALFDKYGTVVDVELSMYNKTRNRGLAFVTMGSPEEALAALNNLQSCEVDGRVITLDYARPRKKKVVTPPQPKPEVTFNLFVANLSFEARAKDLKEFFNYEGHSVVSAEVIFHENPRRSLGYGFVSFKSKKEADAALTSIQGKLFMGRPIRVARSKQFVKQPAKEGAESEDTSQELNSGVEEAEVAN

[3] = target: T3, PK25912.1 V2I;D3L;F4R (Cannabis sativa) (UniProt A0A803Q7P0); conditions: 20 nM protein, 1.5 uM RNA pool; 20 mM HEPES pH 7.8, 70 mM KCl, 10 mM NaCl, 10% glycerol, 2 mM DTT, 0.1 ug/uL BSA; 30 min, 4 C
T3 sequence: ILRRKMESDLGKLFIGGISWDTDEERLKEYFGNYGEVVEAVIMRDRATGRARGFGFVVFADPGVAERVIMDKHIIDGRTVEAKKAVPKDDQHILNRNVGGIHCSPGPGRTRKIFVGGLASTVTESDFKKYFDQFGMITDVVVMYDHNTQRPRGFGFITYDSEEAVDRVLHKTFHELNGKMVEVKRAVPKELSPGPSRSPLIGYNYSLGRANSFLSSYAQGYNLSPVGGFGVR

HNRNPC (Homo sapiens) = HNRNPC (Homo sapiens) (UniProt P07910); conditions: 20 nM protein, 1.5 uM RNA pool; 20 mM HEPES pH 7.8, 70 mM KCl, 10 mM NaCl, 10% glycerol, 2 mM DTT, 0.1 ug/uL BSA; 30 min, 4 C (protocol of this paper; not …); cited from earlier work
HNRNPC (Homo sapiens), sequence (P07910 1-131): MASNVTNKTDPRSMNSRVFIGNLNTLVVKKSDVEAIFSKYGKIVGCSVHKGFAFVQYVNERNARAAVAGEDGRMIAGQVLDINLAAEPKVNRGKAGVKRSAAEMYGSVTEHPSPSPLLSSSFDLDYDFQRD

[4] = target: T4, Y57G11C.36 (Caenorhabditis elegans) (UniProt Q8I4C4); conditions: 20 nM protein, 1.5 uM RNA pool; 20 mM HEPES pH 7.8, 70 mM KCl, 10 mM NaCl, 10% glycerol, 2 mM DTT, 0.1 ug/uL BSA; 30 min, 4 C
T4 sequence: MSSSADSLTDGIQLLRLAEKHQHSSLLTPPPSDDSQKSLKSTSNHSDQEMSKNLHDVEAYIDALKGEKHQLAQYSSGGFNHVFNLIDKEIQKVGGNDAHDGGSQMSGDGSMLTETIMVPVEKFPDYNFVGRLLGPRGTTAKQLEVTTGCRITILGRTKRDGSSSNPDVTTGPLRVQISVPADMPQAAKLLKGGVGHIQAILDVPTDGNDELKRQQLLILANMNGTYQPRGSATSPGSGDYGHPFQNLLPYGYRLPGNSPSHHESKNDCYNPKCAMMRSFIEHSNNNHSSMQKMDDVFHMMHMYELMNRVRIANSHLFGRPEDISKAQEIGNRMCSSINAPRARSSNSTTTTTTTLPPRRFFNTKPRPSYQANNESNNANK

[5] = target: T5, Smp_036270 E366G (Schistosoma mansoni) (UniProt A0A3Q0KEI3); conditions: 20 nM protein, 1.5 uM RNA pool; 20 mM HEPES pH 7.8, 70 mM KCl, 10 mM NaCl, 10% glycerol, 2 mM DTT, 0.1 ug/uL BSA; 30 min, 4 C
T5 sequence: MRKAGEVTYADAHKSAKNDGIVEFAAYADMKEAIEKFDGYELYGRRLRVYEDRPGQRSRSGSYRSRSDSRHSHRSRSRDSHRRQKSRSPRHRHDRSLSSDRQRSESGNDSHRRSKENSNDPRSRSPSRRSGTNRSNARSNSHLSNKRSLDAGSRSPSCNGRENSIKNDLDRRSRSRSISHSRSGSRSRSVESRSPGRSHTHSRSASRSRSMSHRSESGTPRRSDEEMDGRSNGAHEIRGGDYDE

[6] = target: T6, cwf2 (Schizosaccharomyces pombe) (UniProt P87126); conditions: 20 nM protein, 1.5 uM RNA pool; 20 mM HEPES pH 7.8, 70 mM KCl, 10 mM NaCl, 10% glycerol, 2 mM DTT, 0.1 ug/uL BSA; 30 min, 4 C
T6 sequence: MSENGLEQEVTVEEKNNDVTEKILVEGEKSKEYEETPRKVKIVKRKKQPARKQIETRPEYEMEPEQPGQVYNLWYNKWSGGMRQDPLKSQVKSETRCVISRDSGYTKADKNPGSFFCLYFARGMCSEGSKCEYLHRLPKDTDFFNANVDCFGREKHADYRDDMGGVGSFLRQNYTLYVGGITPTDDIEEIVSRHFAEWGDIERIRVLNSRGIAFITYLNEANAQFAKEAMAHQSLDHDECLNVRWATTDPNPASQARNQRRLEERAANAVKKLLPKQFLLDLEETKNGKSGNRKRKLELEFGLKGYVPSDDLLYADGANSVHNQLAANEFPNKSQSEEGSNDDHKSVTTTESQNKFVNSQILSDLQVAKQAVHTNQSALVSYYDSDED

[7] = target: T7, CPEB1 E201G;P348T;C438Y (Homo sapiens) (UniProt Q9BZB8); conditions: 20 nM protein, 1.5 uM RNA pool; 20 mM HEPES pH 7.8, 70 mM KCl, 10 mM NaCl, 10% glycerol, 2 mM DTT, 0.1 ug/uL BSA; 30 min, 4 C
T7 sequence: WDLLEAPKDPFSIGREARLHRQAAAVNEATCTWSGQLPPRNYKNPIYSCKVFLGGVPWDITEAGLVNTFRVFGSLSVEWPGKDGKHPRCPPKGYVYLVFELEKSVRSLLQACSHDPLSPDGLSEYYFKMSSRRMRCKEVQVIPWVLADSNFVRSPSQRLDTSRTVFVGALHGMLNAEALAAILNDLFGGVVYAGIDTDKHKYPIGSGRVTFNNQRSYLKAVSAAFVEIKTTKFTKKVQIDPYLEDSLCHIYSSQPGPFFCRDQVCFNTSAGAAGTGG

[8] = target: T8, CBG05471 (Caenorhabditis briggsae) (UniProt A8WZY6); conditions: 20 nM protein, 1.5 uM RNA pool; 20 mM HEPES pH 7.8, 70 mM KCl, 10 mM NaCl, 10% glycerol, 2 mM DTT, 0.1 ug/uL BSA; 30 min, 4 C
T8 sequence: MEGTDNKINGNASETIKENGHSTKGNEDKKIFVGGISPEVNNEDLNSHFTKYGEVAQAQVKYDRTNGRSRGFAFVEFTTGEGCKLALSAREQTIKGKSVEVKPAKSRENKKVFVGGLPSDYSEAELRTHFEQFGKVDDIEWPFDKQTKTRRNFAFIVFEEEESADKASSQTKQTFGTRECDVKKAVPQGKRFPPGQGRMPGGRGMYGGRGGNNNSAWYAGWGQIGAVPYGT

Substance: GGACGANG [RNAcompete motif RNCMPT00433]
- binding signal (z-score (mean of top ten 7-mers)) [1]: 7.68

Substance: UGGAGNG [RNAcompete motif RNCMPT00403]
- binding signal (z-score (mean of top ten 7-mers)) [2]: 10.9

Substance: UAGGAA [RNAcompete motif RNCMPT00430]
- binding signal (z-score (mean of top ten 7-mers)) [3]: 8.55

Substance: UUUUUU [RNAcompete motif RNCMPT00025]
- binding signal (z-score (mean of top ten 7-mers)) (HNRNPC (Homo sapiens)): 15.8

Substance: CUACUAG [RNAcompete motif RNCMPT00423]
- binding signal (z-score (mean of top ten 7-mers)) [4]: 15.3

Substance: CGGAGG [RNAcompete motif RNCMPT00417]
- binding signal (z-score (mean of top ten 7-mers)) [5]: 13.5

Substance: AANUUG [RNAcompete motif RNCMPT00432]
- binding signal (z-score (mean of top ten 7-mers)) [6]: 17.4

Substance: UUUUUUA [RNAcompete motif RNCMPT00434]
- binding signal (z-score (mean of top ten 7-mers)) [7]: 13.2

Substance: AGUAA [RNAcompete motif RNCMPT00422]
- binding signal (z-score (mean of top ten 7-mers)) [8]: 9.16
